From patent publication US20230104769A1 (MABWELL SHANGHAI BIOSCIENCE, published 2023)

Tests used:
[1] = target: T1, recombinant human PD-1 protein (NCBI accession No.: NP_005009.2, 21aa-167aa) (human, UniProt Q15116 21-167); experiment: BLI Octet QKe, antibody on the sensor, single 100 nM PD-1
T1 construct: range 21-167; also called recombinant human PD-1 extracellular domain protein; PD-1-ECD
Method: Determination of the binding kinetics: the affinity of the antibody was determined with Octet QKe system from Fortebio using an assay of capturing biotin-labeled antibody with streptavidin. […] Both the binding and dissociating were conducted for 300 s.
The comparison of affinity between the variant antibodies and the parent antibody was performed using Octet QKe system supplied by Fortebio.

[2] = target: T2, cynomolgus monkey PD-1 (Cat: 90311-C08H, Sino Biological Inc.) (cynomolgus monkey, UniProt B0LAJ3 25-170); experiment: ELISA, plate coated with the PD-1 protein at 1 µg/mL, hybridoma supernatant diluted 100 times
T2 construct: Bought recombinant protein; not shown: The vendor's tag
T2 sequence (B0LAJ3 entry or part of it C08H C08H limits assumed): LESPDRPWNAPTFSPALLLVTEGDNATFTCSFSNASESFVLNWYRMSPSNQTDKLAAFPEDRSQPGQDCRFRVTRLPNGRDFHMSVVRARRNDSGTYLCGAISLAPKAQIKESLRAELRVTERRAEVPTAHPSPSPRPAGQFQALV
Method: (§1) A plate was coated with recombinant human PD-1/His protein (NCBI accession No.: NP_005009.2, 21aa-167aa, Lot: 2016.2.22), cynomolgus monkey PD-1 (Cat: 90311-C08H, Sino Biological Inc.), rat PD-1 (Cat: 80448-R08H, Sino Biological Inc.) and mouse PD-1 (Cat: 50124-M08H, Sino Biological Inc.) in a concentration of 1 μg/mL overnight at 4° C., washed three times with PBS subsequently, and 5% BSA-PBS was added for blocking for 60 min at 37° C. The plate was washed three times with PBST afterwards, and supernatants of the hybridiomas diluted 100 times were added and incubated for 60 min at 37° C. Again, the plate was washed four times with PBST, HRP-Goat anti-mouse IgG (Fcγ) (Cat: 115-035-071, Jackson Immuno Research) with a dilution of 1:5000 was added for a 30 min incubation at 37° C. Once again, the plate was washed four times with PBST, and TMB substrate was added for developing color through incubating for 10 min at 37° C., then the reaction was terminated by adding 2 M HCl. With 630 nm as reference wavelength, the absorbance at 450 nm (A450 nm-630 nm) of each well in the plate was read and recorded.

[3] = target: T3, mouse PD-1 (Cat: 50124-M08H, Sino Biological Inc.) (mouse, UniProt Q02242 25-167); experiment: as above
T3 construct: Bought recombinant protein; also called recombinant mouse PD-1
T3 sequence (looked up): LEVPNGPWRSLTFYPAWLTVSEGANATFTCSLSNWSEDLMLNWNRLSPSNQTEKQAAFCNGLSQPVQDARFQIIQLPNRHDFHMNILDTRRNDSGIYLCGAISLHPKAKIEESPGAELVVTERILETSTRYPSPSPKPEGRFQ
Method: as §1

[4] = target: T4, rat PD-1 (Cat: 80448-R08H, Sino Biological Inc.) (rat, UniProt D3ZIN8 25-169); experiment: as above
T4 construct: Bought recombinant protein; also called recombinant rat PD-1; not shown: The vendor's tag
T4 sequence: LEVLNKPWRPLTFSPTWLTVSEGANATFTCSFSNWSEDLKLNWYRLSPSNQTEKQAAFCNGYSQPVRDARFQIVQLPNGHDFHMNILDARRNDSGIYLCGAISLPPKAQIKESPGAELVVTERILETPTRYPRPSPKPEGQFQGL
Method: as §1

[5] = target: T5, recombinant human PD-1/His protein (NCBI accession No.: NP_005009.2, 21aa-167aa, Lot: 2016.2.22) (human, UniProt Q15116 21-167); experiment: BLI (Fortebio BLITZ), antibody captured on AHC sensor, PD-1-His in solution
T5 construct: range 21-167; also called recombinant human PD-1 extracellular domain protein; not shown: His tag
T5 sequence (Q15116 21-167 limits assumed, form in doubt): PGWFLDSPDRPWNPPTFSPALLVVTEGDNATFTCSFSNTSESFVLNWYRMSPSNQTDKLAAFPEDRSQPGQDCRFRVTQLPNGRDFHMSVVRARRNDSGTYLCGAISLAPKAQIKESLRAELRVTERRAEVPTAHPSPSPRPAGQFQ
Method: The light chain variable region gene and heavy chain variable region gene of the monoclonal antibody obtained through cloning, with cleavage sites of restriction enzymes introduced by PCR using the following primers (Table 3), were respectively cloned into the upstream of gene encoding human-kappa light chain constant region and the upstream of gene encoding the human IgG4 heavy chain constant region carried in eukaryotic expression vectors. […] The affinity of the antibody was determined by the anti-human antibody capture assay with Fortebio (BLITZ pro1.1.0.28). For the determination, anti-Human IgG Fc Capture (AHC) biosensors were soaked in PBS for 10 min. […] Subsequently, the AHC biosensors were reacted with the diluted recombinant human PD-1-His protein (NCBI accession No.: NP_005009.2, 21aa-167aa, Lot: 2016.2.22) of different concentrations (1 μM, 0.6 μM and 0 nM) for binding for 45 s, and was then transferred into PBS for dissociating for 120 s.

T1 sequence (Q15116 21-167 limits assumed, form in doubt): as above

B1: h317 variant antibody, light chain Y94F (antibody, V domains shown)
VH: EVQLVESGGGLVKPGGSLRLSCAASGFTFSSYDMSWVRQAPGKGLEWVATISGGGSYTYYPDSVKGRFTISRDNAKNSLYLQMNSLRAEDTAVYYCASPDSSGVAYWGQGTLVTVSS
VL: DIVMTQSPLSLPVTPGEPASITCKASQDVETVVAWYLQKPGQSPRLLIYWASTRHTGVPDRFSGSGSGTDFTLKISRVEAEDVGVYYCQQYSRFPWTFGQGTKL
notes: Variant of h317
**Q.** How did the Kd [1] turn out when B1 was run?
**A.** 6.81 nM

B2: Clone 317 (murine antibody 317, hybridoma supernatant) (antibody, mouse IgG1, V domains shown)
VH: EVKLVESGGGLMKPGGSLKLSCAASGFTFSSYDMSWVRQTPEKRLEWVATISGGGSYTYYPDSVKGRFTISRDNAKNNLYLQMSSLRSEDTALYYCASPDSSGVAYWGQGTLVTVSA
VL: DIVMTQSHKFMSTSVGDRVSITCKASQDVETVVAWYQQKPGQSPKLLIYWASTRHTGVPDRFTGSGSGTDFTLTISNVQSEDLADYFCQQYSRYPWTFGGGTKL
notes: tested as hybridoma supernatant
**Q.** Does B2 bind [2]?
**A.** binds

**Q.** Does B2 bind [3]?
**A.** no binding (tested: single dilution, no concentration shown)

**Q.** Does B2 bind [4]?
**A.** no binding (tested: single dilution, no concentration shown)

B3: chimeric antibody 317 (antibody, V domains shown)
VH: EVKLVESGGGLMKPGGSLKLSCAASGFTFSSYDMSWVRQTPEKRLEWVATISGGGSYTYYPDSVKGRFTISRDNAKNNLYLQMSSLRSEDTALYYCASPDSSGVAYWGQGTLVTVSA
VL: DIVMTQSHKFMSTSVGDRVSITCKASQDVETVVAWYQQKPGQSPKLLIYWASTRHTGVPDRFTGSGSGTDFTLTISNVQSEDLADYFCQQYSRYPWTFGGGTKL
**Q.** Which Kd [5] does the source give for B3 here?
**A.** 2.64 nM

**Q.** What about the koff [5] of the same binder?
**A.** 0.000566 s⁻¹

**Q.** What about the kon [5] of the same binder?
**A.** 215000 M⁻¹ s⁻¹
